T1: factor VIIIa A1/A3C1C2 dimer, Glu113Ala (human, UniProt P00451 20-391; P00451 1709-2351)
T1 chain 1: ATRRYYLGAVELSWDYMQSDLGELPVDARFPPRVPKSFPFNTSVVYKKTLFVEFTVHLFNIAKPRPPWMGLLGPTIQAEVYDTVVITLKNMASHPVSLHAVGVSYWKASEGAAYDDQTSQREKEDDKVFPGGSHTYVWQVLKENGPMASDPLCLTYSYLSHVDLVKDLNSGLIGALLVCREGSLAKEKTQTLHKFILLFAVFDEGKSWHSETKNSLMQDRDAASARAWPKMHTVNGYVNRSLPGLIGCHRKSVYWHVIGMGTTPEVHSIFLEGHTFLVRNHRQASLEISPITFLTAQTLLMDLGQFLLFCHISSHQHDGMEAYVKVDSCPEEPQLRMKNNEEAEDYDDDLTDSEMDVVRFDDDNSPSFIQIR
T1 chain 2: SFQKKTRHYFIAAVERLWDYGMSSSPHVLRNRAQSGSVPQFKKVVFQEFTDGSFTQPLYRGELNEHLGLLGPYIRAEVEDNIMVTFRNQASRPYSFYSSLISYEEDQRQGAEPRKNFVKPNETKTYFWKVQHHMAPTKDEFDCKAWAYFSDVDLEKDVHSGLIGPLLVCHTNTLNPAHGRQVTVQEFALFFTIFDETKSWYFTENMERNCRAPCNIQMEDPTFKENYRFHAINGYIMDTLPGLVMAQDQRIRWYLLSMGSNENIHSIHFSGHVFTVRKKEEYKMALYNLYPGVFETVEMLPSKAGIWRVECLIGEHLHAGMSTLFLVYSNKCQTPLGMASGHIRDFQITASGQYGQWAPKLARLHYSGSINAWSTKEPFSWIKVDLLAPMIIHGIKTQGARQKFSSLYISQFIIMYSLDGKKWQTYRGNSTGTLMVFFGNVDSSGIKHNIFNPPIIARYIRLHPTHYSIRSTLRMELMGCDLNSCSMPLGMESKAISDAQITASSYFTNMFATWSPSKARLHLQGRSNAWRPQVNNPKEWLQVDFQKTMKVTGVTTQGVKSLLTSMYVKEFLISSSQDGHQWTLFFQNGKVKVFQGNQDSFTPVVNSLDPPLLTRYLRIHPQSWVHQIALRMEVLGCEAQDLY

T2: factor VIIIa A1/A3C1C2 dimer, Glu1984Val (human, UniProt P00451 20-391; P00451 1709-2351)
T2 sequence 1: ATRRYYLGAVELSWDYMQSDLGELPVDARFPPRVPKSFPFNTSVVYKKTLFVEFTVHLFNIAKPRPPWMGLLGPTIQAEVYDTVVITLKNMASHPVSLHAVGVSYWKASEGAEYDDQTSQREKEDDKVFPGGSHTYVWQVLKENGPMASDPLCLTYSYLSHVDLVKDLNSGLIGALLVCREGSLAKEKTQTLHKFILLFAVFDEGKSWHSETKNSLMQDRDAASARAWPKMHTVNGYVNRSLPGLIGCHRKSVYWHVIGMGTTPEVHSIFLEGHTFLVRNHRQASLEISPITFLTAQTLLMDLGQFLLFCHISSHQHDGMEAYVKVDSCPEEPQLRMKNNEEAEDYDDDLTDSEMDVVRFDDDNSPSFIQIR
T2 sequence 2: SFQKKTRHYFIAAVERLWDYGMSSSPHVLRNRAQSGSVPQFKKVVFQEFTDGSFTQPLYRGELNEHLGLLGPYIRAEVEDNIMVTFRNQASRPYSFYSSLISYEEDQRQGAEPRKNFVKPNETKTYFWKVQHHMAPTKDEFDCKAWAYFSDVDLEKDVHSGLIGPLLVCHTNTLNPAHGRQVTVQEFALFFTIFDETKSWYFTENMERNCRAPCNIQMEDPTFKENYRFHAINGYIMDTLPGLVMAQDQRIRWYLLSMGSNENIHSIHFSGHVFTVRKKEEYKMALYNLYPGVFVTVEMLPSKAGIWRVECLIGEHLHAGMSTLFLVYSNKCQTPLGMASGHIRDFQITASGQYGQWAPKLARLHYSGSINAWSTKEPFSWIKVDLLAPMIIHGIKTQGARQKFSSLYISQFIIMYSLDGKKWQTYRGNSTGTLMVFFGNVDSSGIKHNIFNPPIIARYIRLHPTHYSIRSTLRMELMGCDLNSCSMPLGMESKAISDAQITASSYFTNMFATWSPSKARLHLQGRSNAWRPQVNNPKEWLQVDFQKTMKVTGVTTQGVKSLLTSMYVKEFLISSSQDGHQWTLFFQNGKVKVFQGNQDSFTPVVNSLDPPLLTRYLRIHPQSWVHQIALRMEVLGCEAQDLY

T3: factor VIIIa A1/A3C1C2 dimer, Glu1984Ala (human, UniProt P00451 20-391; P00451 1709-2351)
T3 sequence 1: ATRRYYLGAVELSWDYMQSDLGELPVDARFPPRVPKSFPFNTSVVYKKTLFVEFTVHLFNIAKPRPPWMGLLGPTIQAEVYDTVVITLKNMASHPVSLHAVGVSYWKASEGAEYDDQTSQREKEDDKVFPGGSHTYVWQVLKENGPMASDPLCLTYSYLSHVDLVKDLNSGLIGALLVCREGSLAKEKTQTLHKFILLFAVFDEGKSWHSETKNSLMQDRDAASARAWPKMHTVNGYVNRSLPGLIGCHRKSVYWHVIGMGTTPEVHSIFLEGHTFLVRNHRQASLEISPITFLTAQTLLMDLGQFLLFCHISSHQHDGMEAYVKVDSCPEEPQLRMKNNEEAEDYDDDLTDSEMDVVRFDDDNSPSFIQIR
T3 sequence 2: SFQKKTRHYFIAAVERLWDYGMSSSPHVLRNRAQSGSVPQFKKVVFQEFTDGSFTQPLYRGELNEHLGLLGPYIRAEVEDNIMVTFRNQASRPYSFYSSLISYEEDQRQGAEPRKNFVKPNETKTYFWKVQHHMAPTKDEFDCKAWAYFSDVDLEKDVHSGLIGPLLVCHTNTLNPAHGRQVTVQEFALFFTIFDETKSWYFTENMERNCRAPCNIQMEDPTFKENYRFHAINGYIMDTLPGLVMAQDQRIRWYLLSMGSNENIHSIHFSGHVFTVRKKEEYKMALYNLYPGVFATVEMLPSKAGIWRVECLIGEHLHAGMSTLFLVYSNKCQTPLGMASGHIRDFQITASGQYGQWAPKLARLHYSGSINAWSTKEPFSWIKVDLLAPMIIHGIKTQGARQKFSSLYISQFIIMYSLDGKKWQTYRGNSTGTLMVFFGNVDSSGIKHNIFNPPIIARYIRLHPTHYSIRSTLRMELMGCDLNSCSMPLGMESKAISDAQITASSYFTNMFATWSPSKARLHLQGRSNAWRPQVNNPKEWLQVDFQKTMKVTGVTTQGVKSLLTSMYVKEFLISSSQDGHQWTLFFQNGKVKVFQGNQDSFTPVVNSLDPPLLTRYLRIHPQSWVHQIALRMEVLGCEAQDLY

T4: factor VIIIa A1/A3C1C2 dimer, wild type (human, UniProt P00451 20-391; P00451 1709-2351)
T4 sequence 1: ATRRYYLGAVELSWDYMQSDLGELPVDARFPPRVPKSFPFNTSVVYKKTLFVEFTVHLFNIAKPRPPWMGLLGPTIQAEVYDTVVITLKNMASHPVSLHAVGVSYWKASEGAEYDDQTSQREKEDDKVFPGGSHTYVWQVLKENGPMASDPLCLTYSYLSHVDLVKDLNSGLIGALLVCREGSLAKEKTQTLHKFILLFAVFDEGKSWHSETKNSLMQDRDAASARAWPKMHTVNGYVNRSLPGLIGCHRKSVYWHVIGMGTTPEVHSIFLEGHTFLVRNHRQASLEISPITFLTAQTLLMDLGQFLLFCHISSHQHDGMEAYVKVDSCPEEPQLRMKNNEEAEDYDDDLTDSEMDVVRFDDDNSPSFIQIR
T4 sequence 2: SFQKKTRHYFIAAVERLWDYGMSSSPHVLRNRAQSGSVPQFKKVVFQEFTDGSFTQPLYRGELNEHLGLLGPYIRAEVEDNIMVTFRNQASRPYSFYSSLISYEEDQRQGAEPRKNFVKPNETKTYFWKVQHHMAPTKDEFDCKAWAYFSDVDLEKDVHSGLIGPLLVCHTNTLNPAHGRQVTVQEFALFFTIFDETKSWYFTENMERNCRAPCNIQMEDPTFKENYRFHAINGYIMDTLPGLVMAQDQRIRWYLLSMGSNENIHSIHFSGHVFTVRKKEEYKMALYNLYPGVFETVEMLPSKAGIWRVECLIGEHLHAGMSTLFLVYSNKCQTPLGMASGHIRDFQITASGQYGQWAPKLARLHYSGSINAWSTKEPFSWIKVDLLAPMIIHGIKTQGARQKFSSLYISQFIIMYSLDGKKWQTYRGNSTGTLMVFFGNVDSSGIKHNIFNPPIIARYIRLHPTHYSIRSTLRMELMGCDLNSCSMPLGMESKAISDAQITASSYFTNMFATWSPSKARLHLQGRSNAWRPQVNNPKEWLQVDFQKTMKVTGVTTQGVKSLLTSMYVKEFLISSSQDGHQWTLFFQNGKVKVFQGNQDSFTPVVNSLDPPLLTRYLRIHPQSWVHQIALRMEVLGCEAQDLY


Key:
Test in all cases: cell-based or functional assay
[1] = target: T1, factor VIIIa A1/A3C1C2 dimer, Glu113Ala
[2] = target: T2, factor VIIIa A1/A3C1C2 dimer, Glu1984Val
[3] = target: T3, factor VIIIa A1/A3C1C2 dimer, Glu1984Ala
[4] = target: T4, factor VIIIa A1/A3C1C2 dimer, wild type
[5] = target: T4, factor VIIIa A1/A3C1C2 dimer, wild type; remark: listed apart in the source
[6] = target: T2, factor VIIIa A1/A3C1C2 dimer, Glu1984Val; remark: listed apart in the source
[7] = target: T3, factor VIIIa A1/A3C1C2 dimer, Glu1984Ala; remark: listed apart in the source

| Decay rate relative to wild type, Factor VIIIa (1.5 nM, factor IXa absent) [1] | Decay rate, Factor VIIIa (1.5 nM factor VIIIa, factor IXa absent) [1] [min⁻¹] | Decay rate relative to wild type, Factor VIIIa (1.5 nM, factor IXa absent) [2] | Decay rate, Factor VIIIa (1.5 nM factor VIIIa, factor IXa absent) [2] [min⁻¹] | Decay rate relative to wild type, Factor VIIIa (1.5 nM, factor IXa absent) [3] | Decay rate, Factor VIIIa (1.5 nM factor VIIIa, factor IXa absent) [3] [min⁻¹] | Decay rate relative to wild type, Factor VIIIa (1.5 nM, factor IXa absent) [4] | Decay rate, Factor VIIIa (1.5 nM factor VIIIa, factor IXa absent) [4] [min⁻¹] | Factor VIIIa Decay relative to the WT value, Factor IXa absent [5] | Factor VIIIa Decay relative to the WT value, Factor IXa present [5] | Factor VIIIa Decay, Factor IXa absent [5] [min⁻¹] | Factor VIIIa Decay, Factor IXa present [5] [min⁻¹] | factor VIIIa decay rate relative to the better single mutation of the pairing [6] [fold] | factor VIIIa decay rate relative to the better single mutation of the pairing [7] [fold] | Binder |
| --- | --- | --- | --- | --- | --- | --- | --- | --- | --- | --- | --- | --- | --- | --- |
| 0.53 relative to wild type | 0.0748 | 0.23 relative to wild type | 0.0319 | 0.19 relative to wild type | 0.0266 | 0.64 relative to wild type | 0.0898 | 0.66 relative to WT | 0.41 relative to WT | 0.0556 | 0.0063 | – | – | factor VIIIa A2 subunit, Asp519Ala (other) SVAKKHPKTWVHYIAAEEEDWDYAPLVLAPDDRSYKSQYLNNGPQRIGRKYKKVRFMAYTDETFKTREAIQHESGILGPLLYGEVGDTLLIIFKNQASRPYNIYPHGITDVRPLYSRRLPKGVKHLKDFPILPGEIFKYKWTVTVEAGPTKSDPRCLTRYYSSFVNMERDLASGLIGPLLICYKESVDQRGNQIMSDKRNVILFSVFDENRSWYLTENIQRFLPNPAGVQLEDPEFQASNIMHSINGYVFDSLQLSVCLHEVAYWYILSIGAQTDFLSVFFSGYTFKHKMVYEDTLTLFPFSGETVFMSMENPGLWILGCHNSDFRNRGMTALLKVSSCDKNTGDYYEDSYEDISAYLLSKNNAIEPR |
| 0.35 relative to wild type | 0.0495 | 0.19 relative to wild type | 0.0262 | 0.12 relative to wild type | 0.0168 | 0.6 relative to wild type | 0.0836 | 0.77 relative to WT | 0.44 relative to WT | 0.0642 | 0.0068 | – | – | factor VIIIa A2 subunit, Asp519Val (other) SVAKKHPKTWVHYIAAEEEDWDYAPLVLAPDDRSYKSQYLNNGPQRIGRKYKKVRFMAYTDETFKTREAIQHESGILGPLLYGEVGDTLLIIFKNQASRPYNIYPHGITDVRPLYSRRLPKGVKHLKDFPILPGEIFKYKWTVTVEVGPTKSDPRCLTRYYSSFVNMERDLASGLIGPLLICYKESVDQRGNQIMSDKRNVILFSVFDENRSWYLTENIQRFLPNPAGVQLEDPEFQASNIMHSINGYVFDSLQLSVCLHEVAYWYILSIGAQTDFLSVFFSGYTFKHKMVYEDTLTLFPFSGETVFMSMENPGLWILGCHNSDFRNRGMTALLKVSSCDKNTGDYYEDSYEDISAYLLSKNNAIEPR |
| 0.54 relative to wild type | 0.0754 | 0.9 relative to wild type | 0.127 | 0.93 relative to wild type | 0.13 | 0.6 relative to wild type | 0.0834 | 0.62 relative to WT | 0.51 relative to WT | 0.052 | 0.0078 | ~2.7 | ~2.2 | factor VIIIa A2 subunit, Glu665Ala (other) SVAKKHPKTWVHYIAAEEEDWDYAPLVLAPDDRSYKSQYLNNGPQRIGRKYKKVRFMAYTDETFKTREAIQHESGILGPLLYGEVGDTLLIIFKNQASRPYNIYPHGITDVRPLYSRRLPKGVKHLKDFPILPGEIFKYKWTVTVEDGPTKSDPRCLTRYYSSFVNMERDLASGLIGPLLICYKESVDQRGNQIMSDKRNVILFSVFDENRSWYLTENIQRFLPNPAGVQLEDPEFQASNIMHSINGYVFDSLQLSVCLHEVAYWYILSIGAQTDFLSVFFSGYTFKHKMVYADTLTLFPFSGETVFMSMENPGLWILGCHNSDFRNRGMTALLKVSSCDKNTGDYYEDSYEDISAYLLSKNNAIEPR |

Source: US20090118184A1 (UNIVERSITY OF ROCHESTER, published 2009)
